Changes are numbered by the printed parent chain. Names and notes keep the numbering of the source.
T1: PUF4 RNA-binding domain (Saccharomyces cerevisiae, UniProt P25339 537-888)
T1 sequence: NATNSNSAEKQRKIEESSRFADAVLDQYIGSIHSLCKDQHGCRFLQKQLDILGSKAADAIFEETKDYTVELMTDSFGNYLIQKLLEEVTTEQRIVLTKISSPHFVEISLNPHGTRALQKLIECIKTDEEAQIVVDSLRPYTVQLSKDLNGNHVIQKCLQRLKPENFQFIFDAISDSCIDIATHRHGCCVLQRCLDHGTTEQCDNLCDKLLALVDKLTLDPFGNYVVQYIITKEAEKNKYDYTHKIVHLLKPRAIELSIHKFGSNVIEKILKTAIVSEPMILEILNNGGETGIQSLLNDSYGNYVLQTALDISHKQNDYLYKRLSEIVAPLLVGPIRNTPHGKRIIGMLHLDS

B1: Ic_S2_P4E.1_K4.1_C4.1_H4.1_A4.1_[T5A]_[A6C]_[T7C]_F4.1_[T8C]_T4.1 (ssRNA)
RNA: UUUGAUUAAUAUGAUAUCGUUCUUUCUUGUAACCCAUUCUUUCUCGAUAUCAUAUUAAUCUUU
B2: Ic_S2_P4E.1_K4.1_C4.1_H4.1_A4.1_[T5A]_[A6T]_[T7C]_F4.1_[T8G]_[A9T]_T4.1 (ssRNA)
RNA: B1 RNA with C33U, C35G, A36U
B3: Ic_S2_P4E.1_K4.1_C4.1_H4.1_A4.1_[T5A]_[A6C]_F4.1_[T8C]_T4.1 (ssRNA)
RNA: B1 RNA with C34U
B4: Ic_S2_P4E.1_K4.1_C4.1_H4.1_A4.1_[T5A]_[A6T]_[T7A]_F4.1_[T8A]_[A9C]_T4.1 (ssRNA)
RNA: B1 RNA with C33U, C34A, C35A, A36C
B5: Ic_S2_P4E.1_K4.1_C4.1_H4.1_A4.1_[T5A]_[A6T]_[T7C]_F4.1_[A9G]_T4.1 (ssRNA)
RNA: B1 RNA with C33U, C35U, A36G
B6: Ic_S2_P4E.1_K4.1_C4.1_H4.1_A4.1_[T5A]_[A6T]_F4.1_[T8C]_[A9G]_T4.1 (ssRNA)
RNA: B1 RNA with C33U, C34U, A36G
B7: Ic_S2_P4E.1_K4.1_C4.1_H4.1_A4.1_[T5A]_[A6C]_[T7C]_F4.1_[T8A]_[A9C]_T4.1 (ssRNA)
RNA: B1 RNA with C35A, A36C
B8: Ic_S2_P4E.1_K4.1_C4.1_H4.1_A4.1_[T5A]_[A6T]_F4.1_[T8C]_[A9T]_T4.1 (ssRNA)
RNA: B1 RNA with C33U, C34U, A36U
B9: Ic_S2_P4E.1_K4.1_C4.1_H4.1_A4.1_[T5A]_[A6C]_[T7C]_F4.1_[A9T]_T4.1 (ssRNA)
RNA: B1 RNA with C35U, A36U
B10: Ic_S2_P4E.1_K4.1_C4.1_H4.1_A4.1_[T5A]_[A6C]_[T7A]_F4.1_[T8A]_[A9T]_T4.1 (ssRNA)
RNA: B1 RNA with C34A, C35A, A36U
B11: Ic_S2_P4E.1_K4.1_C4.1_H4.1_A4.1_[T5A]_[A6C]_[T7G]_F4.1_[T8C]_[A9T]_T4.1 (ssRNA)
RNA: B1 RNA with C34G, A36U
B12: Ic_S2_P4E.1_K4.1_C4.1_H4.1_A4.1_[T5A]_[A6T]_[T7A]_F4.1_[A9G]_T4.1 (ssRNA)
RNA: B1 RNA with C33U, C34A, C35U, A36G
B13: Ic_S2_P4E.1_K4.1_C4.1_H4.1_A4.1_[T5A]_[A6C]_[T7C]_F4.1_[A9C]_T4.1 (ssRNA)
RNA: B1 RNA with C35U, A36C
B14: Ic_S2_P4E.1_K4.1_C4.1_H4.1_A4.1_[T5A]_[A6T]_[T7C]_F4.1_[T8G]_[A9G]_T4.1 (ssRNA)
RNA: B1 RNA with C33U, C35G, A36G
B15: Ic_S2_P4E.1_K4.1_C4.1_H4.1_A4.1_[T5A]_[A6T]_[T7A]_F4.1_[T8G]_[A9C]_T4.1 (ssRNA)
RNA: B1 RNA with C33U, C34A, C35G, A36C
B16: Ic_S2_P4E.1_K4.1_C4.1_H4.1_A4.1_[T5A]_[A6C]_F4.1_[T8A]_[A9G]_T4.1 (ssRNA)
RNA: B1 RNA with C34U, C35A, A36G
B17: Ic_S2_P4E.1_K4.1_C4.1_H4.1_A4.1_[T5C]_F4.1_[T8C]_[A9C]_T4.1 (ssRNA)
RNA: B1 RNA with A32C, C33A, C34U, A36C
B18: Ic_S2_P4E.1_K4.1_C4.1_H4.1_A4.1_[T5A]_[A6C]_F4.1_[T8G]_[A9G]_T4.1 (ssRNA)
RNA: B1 RNA with C34U, C35G, A36G
B19: Ic_S2_P4E.1_K4.1_C4.1_H4.1_A4.1_[T5A]_[A6C]_[T7G]_F4.1_T4.1 (ssRNA)
RNA: B1 RNA with C34G, C35U
B20: Ic_S2_P4E.1_K4.1_C4.1_H4.1_A4.1_[T5A]_[A6T]_F4.1_[T8C]_[A9C]_T4.1 (ssRNA)
RNA: B1 RNA with C33U, C34U, A36C
B21: Ic_S2_P4E.1_K4.1_C4.1_H4.1_A4.1_[T5A]_[A6T]_[T7A]_F4.1_[T8A]_T4.1 (ssRNA)
RNA: B1 RNA with C33U, C34A, C35A
B22: Ic_S2_P4E.1_K4.1_C4.1_H4.1_A4.1_[T5C]_F4.1_[T8A]_[A9C]_T4.1 (ssRNA)
RNA: B1 RNA with A32C, C33A, C34U, C35A, A36C
B23: Ic_S2_P4E.1_K4.1_C4.1_H4.1_A4.1_[T5A]_[A6C]_[T7C]_F4.1_[T8C]_[A9C]_T4.1 (ssRNA)
RNA: B1 RNA with A36C
B24: Ic_S2_P4E.1_K4.1_C4.1_H4.1_A4.1_[T5A]_[A6T]_[T7C]_F4.1_[A9T]_T4.1 (ssRNA)
RNA: B1 RNA with C33U, C35U, A36U
B25: Ic_S2_P4E.1_K4.1_C4.1_H4.1_A4.1_[T5A]_[A6C]_F4.1_[T8G]_[A9T]_T4.1 (ssRNA)
RNA: B1 RNA with C34U, C35G, A36U

Biological target: T1, PUF4 RNA-binding domain
Assay: Mg; RNA-MaP; 20 mM Na-HEPES pH 7.4, 30 mM KOAc, 0.75 mM MgCl2, 0.1% Tween-20, 5% glycerol, 0.1 mg/mL BSA, 2 mM DTT; 25 C; 0.0125-409.6 nM protein
Details: tags: N-His6-TEV cleaved; C-SNAP kept, Cy3B-labelled; label: tethered on chip by stalled RNA polymerase

Binder	Kd
B1	666 nM
B2	335 nM
B3	324 nM
B4	470 nM
B5	24.7 nM
B6	649 nM
B7	1570 nM
B8	48 nM
B9	24.6 nM
B10	45.2 nM
B11	190 nM
B12	11.1 nM
B13	44.4 nM
B14	1800 nM
B15	1120 nM
B16	946 nM
B17	12.3 nM
B18	701 nM
B19	11 nM
B20	315 nM
B21	56 nM
B22	4.76 nM
B23	582 nM
B24	22 nM
B25	61.3 nM
UCUCUUUGUACUUAUCUCUU (ssRNA) [Ic_S1_P3E.1_K3.1_C3.1_H3.1_A3.1_[T5C]_[A6T]_F3.1_T3.1]	66.4 nM
UCUCUUUGUAACUAUCUCUU (ssRNA) [Ic_S1_P3E.1_K3.1_C3.1_H3.1_A3.1_[T5A]_[A6C]_F3.1_T3.1]	271 nM
UCUCUUUGUACGUAUCUCUU (ssRNA) [Ic_S1_P3E.1_K3.1_C3.1_H3.1_A3.1_[T5C]_[A6G]_F3.1_T3.1]	149 nM
UCUCUUUGUACCUAUCUCUU (ssRNA) [Ib_S1_P3E.1_K3.1_C3.1_H3.1_A3.1_[T5C]_[A6C]_F3.1_T3.1]	86.7 nM

— paper PMC9352680, “A comprehensive thermodynamic model for RNA binding by the Saccharomyces cerevisiae Pumilio protein PUF4”
